Assay results: US20140341881A1 (DERMADIS, published 2014)
Changes are numbered by the printed parent chain. Where two headings read alike, the source gives them in different places. Values belong to the binder of their own block, whether it stands above or below them.

What was measured:
[1] = target: T1, human plasma kallikrein (PK) (human, UniProt P03952 20-638); assay: progress curve, ka with PK against ka with hK2
Experimental: Under these conditions, a fixed amount of enzyme (2 nM) was mixed with different concentrations of inhibitor (0-800 nM) and an excess of substrate (10 μM). Each reaction was made in reaction buffer (50 mM Tris pH 7.5, 150 mM NaCl, 0,05% Triton X-100, 0.01% BSA) at 25° C. for 45 min and the rate of product formation was measured using a FLₓ800 fluorescence 96-well microplate reader (Biotek, USA). In this model, inhibition is considered to be irreversible over the course of reaction and the progress of enzyme activity is expressed by product formation (P), beginning at a rate (vz) and is inhibited over time (t) at a first-order rate (kobs), rate constant that is dependent only on inhibitor concentration.
The rate of inhibitory reaction with variant ACTs was determined for each protease showing reactivity with these inhibitors. To that end, interaction of hK2 and recombinant serpins was measured under pseudo-first order conditions using progress curve method. hK2 (2 nM) and substrate Z-FR-AMC […] were added to varying amounts (20 n-800 nM) of inhibitors rACT_{8.20}, rACT_{5.18} and inhibitors rACT_{6.2}, rACT_{8.3}, rACT_{6.7}, rACT_{6.1} (data not shown). […] After determination of kobs, association constants (ka) were calculated using Kₘ of the proteases for their corresponding substrates (table VI). […]

[2] = target: T1, human plasma kallikrein (PK); assay: residual enzyme activity against [I]o/[E]o, fluorogenic substrate
[3] = target: T2, human kallikrein 2 (hK2) (human, UniProt P20151 25-261); assay: as above
T2 construct: two preparations treated as one molecule; also called kallikrein hK2

[4] = target: T1, human plasma kallikrein (PK); assay: progress curve, pseudo-first order, fluorogenic substrate
[5] = target: T2, human kallikrein 2 (hK2); assay: as above
[6] = target: human kallikrein hK1 (human, UniProt P06870 25-262); assay: cell-based or functional assay
[7] = target: T1, human plasma kallikrein (PK); assay: cell-based or functional assay
[8] = target: T2, human kallikrein 2 (hK2); assay: cell-based or functional assay
[9] = target: urokinase plasminogen activator (uPA) (UniProt P00749 21-431, limits assumed); assay: cell-based or functional assay
[10] = target: T3, prostate specific antigen (PSA, hK3) (human, UniProt P07288 25-261); assay: cell-based or functional assay
[11] = target: T1, human plasma kallikrein (PK); assay: residual enzyme activity against [I]o/[E]o
[12] = target: T4, human kallikrein 14 (hK14) (human, UniProt Q9P0G3 25-251, limits assumed); assay: residual enzyme activity against [I]o/[E]o
T4 construct: range counted on GenBank AAK48524 (printed), which may differ from the UniProt numbering; also called recombinant hK14
T4 sequence (looked up): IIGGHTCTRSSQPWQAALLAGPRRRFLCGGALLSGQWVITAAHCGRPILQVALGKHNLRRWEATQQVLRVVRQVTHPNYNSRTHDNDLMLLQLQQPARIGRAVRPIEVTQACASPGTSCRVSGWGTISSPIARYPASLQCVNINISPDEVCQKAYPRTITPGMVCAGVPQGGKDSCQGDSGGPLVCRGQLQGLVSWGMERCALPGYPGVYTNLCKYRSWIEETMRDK

[13] = target: T5, human kallikrein 8 (hK8) (human, UniProt O60259 33-260); assay: residual enzyme activity against [I]o/[E]o
T5 sequence (looked up): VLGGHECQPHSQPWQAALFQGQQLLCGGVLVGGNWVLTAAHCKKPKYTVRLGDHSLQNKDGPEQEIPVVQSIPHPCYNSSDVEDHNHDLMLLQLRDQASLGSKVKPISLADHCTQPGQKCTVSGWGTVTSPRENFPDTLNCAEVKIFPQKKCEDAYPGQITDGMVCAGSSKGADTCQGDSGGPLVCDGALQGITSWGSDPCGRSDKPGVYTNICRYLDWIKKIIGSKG

[14] = target: T6, human chymotrypsin (Chtr) (human, UniProt P17538 19-263); assay: residual enzyme activity against [I]o/[E]o
[15] = target: T1, human plasma kallikrein (PK); assay: cell-based or functional assay; remark: listed apart in the source
[16] = target: T4, human kallikrein 14 (hK14); assay: cell-based or functional assay
[17] = target: T7, human neutrophil elastase (HNE) (human, UniProt P08246 30-247, limits assumed); assay: cell-based or functional assay
T7 sequence (looked up): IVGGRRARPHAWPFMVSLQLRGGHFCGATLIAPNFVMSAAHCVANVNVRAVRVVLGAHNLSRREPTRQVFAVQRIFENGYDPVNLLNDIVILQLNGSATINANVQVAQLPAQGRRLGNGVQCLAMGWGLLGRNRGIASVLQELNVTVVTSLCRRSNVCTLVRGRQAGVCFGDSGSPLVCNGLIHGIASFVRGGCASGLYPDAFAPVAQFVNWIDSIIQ

[18] = target: T5, human kallikrein 8 (hK8); assay: cell-based or functional assay
[19] = target: thrombin; assay: cell-based or functional assay
[20] = target: T6, human chymotrypsin (Chtr); assay: cell-based or functional assay
[21] = target: T2, human kallikrein 2 (hK2); assay: Western blot, 1 µg inhibitor with 100 ng kallikrein, 1 h at 37 C
Experimental: (§1) Analysis of the inhibitory reaction between rACTs and the human kallikreins were analysed by Western Blot (data not shown). For each variants of ACT, 1 μg of inhibitor was incubated with 100 ng of either hK2 or hK3 during 1 hour at 37° C. under physiological conditions.

[22] = target: T3, prostate specific antigen (PSA, hK3); assay: as above
Experimental: as §1

[23] = target: T1, human plasma kallikrein (PK); assay: progress curve
[24] = target: T4, human kallikrein 14 (hK14); assay: progress curve
[25] = target: T6, human chymotrypsin (Chtr); assay: progress curve

T6 sequence (P17538 19-263): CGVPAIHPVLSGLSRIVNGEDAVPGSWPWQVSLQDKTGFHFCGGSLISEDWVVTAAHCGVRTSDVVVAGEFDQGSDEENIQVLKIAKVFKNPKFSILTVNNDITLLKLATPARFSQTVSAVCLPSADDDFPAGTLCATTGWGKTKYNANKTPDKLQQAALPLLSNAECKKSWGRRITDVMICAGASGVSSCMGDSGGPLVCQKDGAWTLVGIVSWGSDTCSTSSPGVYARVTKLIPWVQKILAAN
T1 sequence (P03952 20-638 limits assumed): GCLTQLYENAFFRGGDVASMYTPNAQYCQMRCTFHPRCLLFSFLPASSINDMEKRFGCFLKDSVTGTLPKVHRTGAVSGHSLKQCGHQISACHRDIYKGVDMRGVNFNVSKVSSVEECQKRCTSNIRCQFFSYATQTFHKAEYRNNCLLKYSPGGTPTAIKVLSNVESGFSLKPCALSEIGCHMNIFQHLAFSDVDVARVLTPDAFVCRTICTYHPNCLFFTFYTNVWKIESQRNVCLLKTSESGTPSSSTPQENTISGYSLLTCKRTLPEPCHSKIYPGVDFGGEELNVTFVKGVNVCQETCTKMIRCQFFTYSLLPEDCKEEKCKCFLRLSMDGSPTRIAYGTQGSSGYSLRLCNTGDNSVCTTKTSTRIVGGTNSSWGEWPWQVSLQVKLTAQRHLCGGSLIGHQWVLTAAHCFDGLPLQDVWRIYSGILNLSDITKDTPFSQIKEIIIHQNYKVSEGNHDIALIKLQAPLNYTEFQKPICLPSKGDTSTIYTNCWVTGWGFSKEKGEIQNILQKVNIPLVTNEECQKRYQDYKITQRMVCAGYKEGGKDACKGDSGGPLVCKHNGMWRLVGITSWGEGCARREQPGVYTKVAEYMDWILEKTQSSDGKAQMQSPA

fold lower ka than with hK2 [1]: 45 fold
SI (stoichiometry of inhibition) [2]: 277
SI (stoichiometry of inhibition) [3]: 9
kon [4]: 201 M⁻¹ s⁻¹
kon [5]: 8990 M⁻¹ s⁻¹
INHIBITION % [6]: 0%
INHIBITION % [7]: 36%
INHIBITION % [8]: 100%
INHIBITION % [9]: 0%
INHIBITION % [10]: 0%
B1: rACT6.7 (other)
chain: MRGSHHHHHHSRHPNSPLDEENLTQENQDRGTHVDLGLASANVDFAFSLYKQLVLKAPDKNVIFSPLSISTALAFLSLGAHNTTLTEILKGLKFNLTETSEAEIHQSFQHLLRTLNQSSDELQLSMGNAMFVKEQLSLLDRFTEDAKRLYGSEAFATDFQDSAAAKKLINDYVKNGTRGKITDLIKDLDSQTMMVLVNYIFFKAKWEMPFDPQDTHQSRFYLSKKKWVMVPMMSLHHLTIPYFRDEELSCTVVELKYTGNASALFILPDQDKMEEVEAMLLPETLKRWRDSLEFREIGELYLPKFSISRDYNLNDILLQLGIEEAFTSKADLSGITGARNLAVSQVVHKAVLDVFEEGTEASAATAVKIKLRTTLVETRTIVRFNRPFLMIIVPTDTQNIFFMSKVTNPKQA
notes: recombinant ACT variant, RSL substrate peptide KLRTT; N-terminal His tag, E. coli TG1; also called MD67; MD 67

SI (stoichiometry of inhibition) [11]: 4.6
SI (stoichiometry of inhibition) [12]: 3.2
SI (stoichiometry of inhibition) [13]: ~180
SI (stoichiometry of inhibition) [14]: 1
INHIBITION % [15]: 100%
INHIBITION % [16]: 100%
INHIBITION % [17]: 0%
INHIBITION % [18]: ~25%
INHIBITION % [19]: 0%
INHIBITION % [20]: 98%
binding result [21]: binds
binding result [22]: binds
kon [23]: 25900 M⁻¹ s⁻¹
kon [24]: 287000 M⁻¹ s⁻¹
kon [25]: 86200 M⁻¹ s⁻¹
B2: rACTPCI (other)
chain: B1 chain with K370T, L371F, T373S, T374A
notes: E. coli TG1, Ni-NTA purified; also called MDCI; MD CI
